Data: patent US20200407424A1 (FRAUNHOFER GESELLSCHAFT ZUR F RDERUNG DER ANGEWANDTEN …, published 2020)
Read-outs that look alike come from different tables or passages of the source. Square brackets hold non-standard residues; d marks the D form. Ends that are not written are not given here. Cit = NC(=O)NCCC[C@H](N)C(=O)O

Tests used:
Experiment in all cases: in vitro binding assay
[1] = biological target: T1, recombinant MHC class II protein of the HLA DRB1 0101 genotype (human)
T1 construct: construct not described

[2] = biological target: T2, recombinant MHC class II protein of the HLA DRB1 0401 genotype (human)
T2 construct: construct not described; also called HLA-DR0401

[3] = biological target: T3, recombinant MHC class II protein of the HLA DRB1 0404 genotype (human)
T3 construct: construct not described

[4] = biological target: T4, recombinant MHC class II protein of the HLA DRB1 0405 genotype (human)
T4 construct: construct not described

[5] = biological target: T5, recombinant MHC class II protein of the HLA DRB1 0408 genotype (human)
T5 construct: construct not described

[6] = biological target: T6, recombinant MHC class II protein of the HLA DRB1 1001 genotype (human)
T6 construct: construct not described

[7] = biological target: T3, recombinant MHC class II protein of the …; remark: listed apart in the source
[8] = biological target: T2, recombinant MHC class II protein of the …; remark: listed apart in the source
[9] = biological target: T4, recombinant MHC class II protein of the …; remark: listed apart in the source
[10] = biological target: T1, recombinant MHC class II protein of the …; remark: listed apart in the source
[11] = biological target: T2, recombinant MHC class II protein of the …; remark: listed apart in the source
[12] = biological target: T3, recombinant MHC class II protein of the …; remark: listed apart in the source
[13] = biological target: T4, recombinant MHC class II protein of the …; remark: listed apart in the source

binding result [1]	binding result [2]	binding result [3]	binding result [4]	binding result [5]	binding result [6]	binding result [10]	binding result [11]	binding result [12]	binding result [13]	Binder	further results
–	–	–	–	–	–	no binding	binds	binds	no binding	VDQLTNDKARVEVER [vimentin peptide ref no 33]	–
–	–	–	–	–	–	no binding	binds	no binding	no binding	RKLLEGEESRISLPL [vimentin peptide ref no 81]	–
–	–	–	–	–	–	binds	binds	no binding	no binding	YAT[Cit]SSAV[Cit]L[Cit]SSVP [citrullinated vimentin peptide ref no 105]	–
–	–	–	–	–	–	binds	binds	binds	binds	SAV[Cit]L[Cit]SSVPGV[Cit]LL [citrullinated vimentin peptide ref no 106]	–
–	–	–	–	–	–	no binding	binds	no binding	no binding	GVXLLQDSVDFSLAD (citrulline (Xaa) at 3) [citrullinated vimentin peptide ref no 108]	–
–	–	–	–	–	–	binds	binds	no binding	no binding	FKNT[Cit]TNEKVELQEL [citrullinated vimentin peptide ref no 111]	–
–	–	–	–	–	–	no binding	binds	no binding	no binding	DNASLA[Cit]LDLE[Cit]KVE [citrullinated vimentin peptide ref no 133]	–
–	–	–	–	–	–	no binding	no binding	binds	no binding	THSK[Cit]TLLIKTVET[Cit] [citrullinated vimentin peptide ref no 166]	–
binds	binds	binds	binds	binds	no binding	–	–	–	–	KGVPLYRHIADLAGN [a-enolase peptide ref no 26]	–
binds	binds	no binding	binds	binds	no binding	–	–	–	–	AEVYHNLKNVIKEKY [a-enolase peptide ref no 38]	–
binds	binds	binds	binds	binds	binds	–	–	–	–	KSFIKDYPVVSIEDP [a-enolase peptide ref no 57]	–
binds	no binding	no binding	binds	binds	no binding	–	–	–	–	GAPCRSERLAKYNQL [a-enolase peptide ref no 80]	–
binds	no binding	binds	no binding	no binding	no binding	–	–	–	–	SERLAKYNQLLRIEE [a-enolase peptide ref no 81]	–
binds	no binding	no binding	binds	no binding	no binding	–	–	–	–	ANFREAMRIGAEVYH [a-enolase peptide ref no 36]	–
binds	binds	binds	binds	binds	no binding	–	–	–	–	KEGLELLKTAIGKAG [a-enolase peptide ref no 45]	–
no binding	no binding	no binding	binds	no binding	no binding	–	–	–	–	LLKVNQIGSVTESLQ [a-enolase peptide ref no 69]	–
no binding	binds	no binding	binds	binds	no binding	–	–	–	–	KGVPLY[Cit]HIADLAGN [citrullinated a-enolase peptide ref no 299]	–

The remaining lines, values behind:

Binder	binding result [1]	binding result [2]	binding result [3]	binding result [4]	binding result [5]	binding result [6]	binding result [10]	binding result [11]	binding result [12]	binding result [13]	further results
MSILKIHAREIFDSR [a-enolase peptide ref no 1]	binds	no binding	binds	binds	no binding	binds	–	–	–	–	–
RYMGKGVSKAVEHIN [a-enolase peptide ref no 12]	binds	no binding	no binding	binds	binds	binds	–	–	–	–	–
PGLQGMPGERGAAGI [type II collagen peptide ref no 195]	–	–	–	–	–	–	–	–	–	–	binding result [7]: binds
GDRGETGAVGAPGAP [type II collagen peptide ref no 257]	–	–	–	–	–	–	–	–	–	–	binding result [7]: binds
PGLQGMPGE[Cit]GAAGI [citrullinated type II collagen peptide ref no 386]	–	–	–	–	–	–	–	–	–	–	binding result [8]: binds; binding result [7]: binds
GIVGLPGQ[Cit]GE[Cit]GFP [citrullinated type II collagen peptide ref no 411]	–	–	–	–	–	–	–	–	–	–	binding result [8]: binds; binding result [7]: binds; binding result [9]: binds
PQGARGFPGTPGLPG [type II collagen peptide ref no 100]	–	–	–	–	–	–	–	–	–	–	binding result [7]: binds
VMGFPGPKGANGEPG [type II collagen peptide ref no 166]	–	–	–	–	–	–	–	–	–	–	binding result [7]: binds
PSGFQGLPGPPGPPG [type II collagen peptide ref no 178]	–	–	–	–	–	–	–	–	–	–	binding result [9]: binds
GPPGATGFPGAAGRV [type II collagen peptide ref no 224]	–	–	–	–	–	–	–	–	–	–	binding result [7]: binds
GVSKAVEHINKTIAP [a-enolase peptide ref no 13]	binds	no binding	binds	no binding	no binding	no binding	–	–	–	–	–
LAGQRGIVGLPGQRG [type II collagen peptide ref no 241]	–	–	–	–	–	–	–	–	–	–	binding result [8]: no binding; binding result [7]: binds; binding result [9]: binds
GHRGFTGLQGLPGPP [type II collagen peptide ref no 272]	–	–	–	–	–	–	–	–	–	–	binding result [9]: binds
MSTRSVSSSSYRRMF [vimentin peptide ref no 1]	–	–	–	–	–	–	binds	binds	binds	no binding	–
YRRMFGGPGTASRPS [vimentin peptide ref no 3]	–	–	–	–	–	–	binds	binds	binds	binds	–
VEHINKTIAPALVSK [a-enolase peptide ref no 14]	binds	no binding	binds	no binding	binds	no binding	–	–	–	–	–
KTIAPALVSKKLNVT [a-enolase peptide ref no 15]	binds	no binding	binds	no binding	binds	no binding	–	–	–	–	–
SPGGVYAT[Cit]SSAV[Cit]L [citrullinated vimentin peptide ref no 104]	–	–	–	–	–	–	binds	binds	binds	no binding	–
